Key:
monomeric TTR [1] = target: T1, monomeric TTR (UniProt P02766 21-147); assay: BIACORE (SPR); monomeric TTR (affinity)
aggregated TTR [2] = target: T2, aggregated TTR (UniProt P02766 21-147); assay: BIACORE (SPR); off-rate from amyloid (aggregated TTR)
aggregated TTR [3] = target: T2, aggregated TTR; assay: BIACORE (SPR), apparent affinity with avidity; same value in mass units; same KD in mass units
aggregated TTR [4] = target: T2, aggregated TTR; assay: BIACORE (SPR), apparent affinity with avidity; aggregated TTR; apparent affinity (affinity+avidity)
monomeric TTR [5] = target: T1, monomeric TTR; assay: BIACORE (SPR); off-rate from monomers

Kd (monomeric TTR [1]): 134 nM
koff (aggregated TTR [2]): 0.0002 s⁻¹
Kd (aggregated TTR [3]): 0.48 µg/mL
Kd (aggregated TTR [4]): 3.2 nM
koff (monomeric TTR [5]): 0.0037 s⁻¹
B1: PRX004 (antibody, human IgG1, kappa, V domains shown)
VH: EVQLVESGGGLVQPGGSLKLSCAASGFTFSSYTMSWVRQTPEKRLELVAEINNSGDTTYYPDTVKGRFTISRDNAKNTLYLQMSSLKSEDTAMYYCARHYYYGGGYGGWFFDVWGQGTLVTVSS
VL: DIVMTQSPLSLPVTPGEPASISCRSSKSLLHSNGNTYLYWFLQKPGQSPQLLIYRVSNLASGVPSRFSGSGSGTDFTLKISRVEAEDVGVYYCMQHLEYPLTFGQGTKLEIKR
notes: Humanized IgG1 kappa monoclonal antibody; also called humanized immunoglobulin (Ig) G1 kappa mAb

Reference: US20230391859A1 (Novo Nordisk, published 2023)
